What is called Kd is the free concentration of one partner at which half of the binding sites on the other are occupied at equilibrium, for simple one-to-one binding. Higher therefore signals lower affinity.

Holding throughout (test): ITC
For orientation: In ITC the heat of successive injections is recorded.

Data set [1] concerns the target T1, CstF-50;CstF-77ΔN;CstF-64RH (Homo sapiens;Homo sapiens;Homo sapiens, UniProt Q05048;Q12996;P33240 1-431;241-717;1-199, |del1-240|).
T1 sequence 1: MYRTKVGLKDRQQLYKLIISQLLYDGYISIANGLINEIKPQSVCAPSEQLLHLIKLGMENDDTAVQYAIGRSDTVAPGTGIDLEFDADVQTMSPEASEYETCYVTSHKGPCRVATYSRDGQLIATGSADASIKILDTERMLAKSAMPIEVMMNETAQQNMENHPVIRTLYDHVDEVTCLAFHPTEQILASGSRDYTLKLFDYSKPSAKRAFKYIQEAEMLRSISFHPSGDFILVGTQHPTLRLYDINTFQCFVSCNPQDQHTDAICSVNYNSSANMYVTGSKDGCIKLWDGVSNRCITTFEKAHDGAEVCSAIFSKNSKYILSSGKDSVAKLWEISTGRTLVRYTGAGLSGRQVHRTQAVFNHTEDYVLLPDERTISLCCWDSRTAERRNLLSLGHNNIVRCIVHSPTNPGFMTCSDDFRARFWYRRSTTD
T1 sequence 2: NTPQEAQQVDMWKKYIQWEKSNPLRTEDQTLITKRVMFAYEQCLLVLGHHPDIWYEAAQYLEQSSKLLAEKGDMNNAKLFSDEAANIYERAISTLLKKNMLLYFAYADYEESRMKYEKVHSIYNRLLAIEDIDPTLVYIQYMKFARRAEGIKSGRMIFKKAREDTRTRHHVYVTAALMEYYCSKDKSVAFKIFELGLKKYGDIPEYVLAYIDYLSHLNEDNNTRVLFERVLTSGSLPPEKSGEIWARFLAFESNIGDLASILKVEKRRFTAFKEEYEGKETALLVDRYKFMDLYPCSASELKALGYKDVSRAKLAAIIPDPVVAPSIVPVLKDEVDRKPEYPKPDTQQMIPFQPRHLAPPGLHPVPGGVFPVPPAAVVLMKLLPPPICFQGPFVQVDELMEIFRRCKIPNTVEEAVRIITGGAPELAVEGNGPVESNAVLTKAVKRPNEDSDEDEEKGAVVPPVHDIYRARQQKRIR
T1 sequence 3: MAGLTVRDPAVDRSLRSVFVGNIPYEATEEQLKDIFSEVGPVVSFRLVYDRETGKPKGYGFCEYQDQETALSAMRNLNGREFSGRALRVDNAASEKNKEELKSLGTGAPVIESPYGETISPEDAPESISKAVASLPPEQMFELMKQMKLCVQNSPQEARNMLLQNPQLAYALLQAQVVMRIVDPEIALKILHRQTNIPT

Data set [2] concerns the target T2, CstF-77ΔN;CstF-64RH (Homo sapiens;Homo sapiens, UniProt Q12996;P33240 241-717;1-199, del1-240|).
T2 sequence 1: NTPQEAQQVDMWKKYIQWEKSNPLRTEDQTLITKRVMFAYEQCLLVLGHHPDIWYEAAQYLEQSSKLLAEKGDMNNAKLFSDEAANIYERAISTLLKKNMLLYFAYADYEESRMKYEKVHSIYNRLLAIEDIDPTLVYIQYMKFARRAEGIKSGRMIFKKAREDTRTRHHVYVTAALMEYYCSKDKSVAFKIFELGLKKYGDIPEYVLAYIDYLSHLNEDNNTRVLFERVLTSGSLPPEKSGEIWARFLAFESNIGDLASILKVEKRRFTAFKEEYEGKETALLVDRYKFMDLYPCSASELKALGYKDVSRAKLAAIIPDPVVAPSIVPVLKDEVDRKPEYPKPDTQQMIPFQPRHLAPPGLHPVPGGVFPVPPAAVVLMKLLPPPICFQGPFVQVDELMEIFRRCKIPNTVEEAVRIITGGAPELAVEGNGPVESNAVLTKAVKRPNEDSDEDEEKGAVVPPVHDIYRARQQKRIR
T2 sequence 2: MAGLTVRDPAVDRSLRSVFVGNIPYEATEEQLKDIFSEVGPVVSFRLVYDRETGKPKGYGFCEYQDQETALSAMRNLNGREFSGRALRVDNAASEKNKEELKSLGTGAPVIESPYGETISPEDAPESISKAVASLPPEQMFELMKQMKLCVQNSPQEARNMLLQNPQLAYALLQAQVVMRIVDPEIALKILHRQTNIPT

Data set [3] addresses T3, CstF-64 RRM (Homo sapiens, UniProt P33240 16-94).
T3 sequence: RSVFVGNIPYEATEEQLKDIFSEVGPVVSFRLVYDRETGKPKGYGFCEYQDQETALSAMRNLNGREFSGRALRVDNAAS

Data set [4] concerns the target T1, CstF-50;CstF-77ΔN;CstF-64RH. This is another data set of the same source.
The target is the same in data set [5]. This is another data set of the same source.
Data set [6] shares this target. The source holds these as a separate data set.
Data set [7] addresses T2, CstF-77ΔN;CstF-64RH. The source holds these as a separate data set.
Data set [8] has as its target T2, CstF-77ΔN;CstF-64RH. This is another data set of the same source.

Where two headings read alike, the source gives them in different places.

Regarding GUGUGUGUGUGUGU (ssRNA) [GU14], the Kd in data set [1] is roughly 120 nM; in data set [2], roughly 160 nM; in data set [3], roughly 2500 nM.

GUGUGUGU (ssRNA) [GU8] yielded a binding signal in data set [4] of roughly 2.5 fold tighter than GU6.

Turning to ACACACACACACAC (ssRNA) [AC14], in data set [5], the binding result is “no binding”.

With GUGUGUGUGU (ssRNA) [GU10], the Kd in data set [6] was roughly 500 nM. Also, the binding result in data set [7] is listed as “binds”.

In data set [8], GUGUGACCCUUUUU (ssRNA) [UUUUU-containing RNA] registered a Kd of roughly 3700 nM.

The values above are taken from paper PMC5778602.
